The values below come from patent CN113754775A (SUNSHINE GUOJIAN PHARMACEUTICAL SHANGHAI CO LTD, dated 2021).

The assay has as its target T1, PDL1-ECD-his (human, UniProt Q9NZQ7 19-238).
T1 construct: extracellular domain; Made in HEK-293F
The experiment in a line: ELISA, PDL1-ECD-his coated, anti-human IgG Fc-HRP.

T1 sequence (Q9NZQ7 other isoform, or with tags, fused parts or gaps): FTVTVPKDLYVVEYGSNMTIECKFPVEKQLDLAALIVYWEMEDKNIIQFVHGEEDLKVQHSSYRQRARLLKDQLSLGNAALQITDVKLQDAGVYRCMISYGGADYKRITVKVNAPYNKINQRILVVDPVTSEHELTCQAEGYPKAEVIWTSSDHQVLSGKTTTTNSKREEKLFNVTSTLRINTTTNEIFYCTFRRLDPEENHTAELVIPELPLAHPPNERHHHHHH

B1: 抗人PD-L1抗体M8 (antibody, V domains shown)
VH: QVQLQQSGGGLVKPSQSLSLTCTVSGFSLTSYGVHWVRQPPGKGLEWIGLIWSGGGTDYNPSLKSRLTISRDTSKNQVSFKISSLTAADTAVYYCARQLGLRAMDYWGQGTSVTVSS
VL: EIVLTQSPDFLSVTPKEKVTITCRASQSIGTTIHWYQQKPDQSPKLLIKYASQSFSGVPSRFSGSGSGTDFTLTINSVEAEDAATYYCQQSNSWPLTFGAGTKLEIK
notes: Whole monoclonal antibody with two heavy and two light chains, made in HEK293F; also called anti-human PD-L1 antibody M8
For B1, the binding result is “binds”.
